Target: Chicken ACE2-hFc (soluble chicken ACE2 residues 18-740 fused to human IgG1 Fc) (chicken (Gallus gallus))
Assay: SPR

| Substance | Kd [µM] | kon [M⁻¹ s⁻¹] |
| --- | --- | --- |
| SARS-CoV-2 Gamma (P.1) RBD monomer (from UniProt P0DTC2) (domain or fragment) | 44.7 | 4200 |
| SARS-CoV-2 Omicron BA.2 RBD monomer (from UniProt P0DTC2) (domain or fragment) | 0.334 | 258000 |
| SARS-CoV-2 Omicron BA.5 RBD monomer (from UniProt P0DTC2) (domain or fragment) | 0.375 | – |
| SARS-CoV-2 Alpha (B.1.1.7) RBD monomer (from UniProt P0DTC2) (domain or fragment) | 409 | 300 |

Reference: PMC12339479
